Assay results reported in the supplement of paper PMC10724198.
± gives the standard deviation of the averaged measurements.

Tested on: Saccharomyces cerevisiae
Assay: protein stability index of tFT-peptide fusion (C-terminal peptide) (PSI (0-1 scale)); higher = more stable (slower turnover)
Details: genetic background: wild type; temperature: 30 C
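Also: PSI is a weighted mean of sequencing reads over stability bins, variants kept only with over 10 reads, mCherry proximal and sfGFP distal, peptide attached via GGGS linker.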

Row | Sequence | protein stability index
1 | AAVQVCVLLLLL | 0.414 ± 0.0057
2 | ACSRKPIWVTWL | 0.35 ± 0.065
3 | AFLLVLFCCVSC | 0.298 ± 0.018
4 | AFLWSLFVFFRF | 0.393 ± 0.085
5 | AFVVPLFLCCCG | 0.255 ± 0.0048
6 | AFYLCLYFMPVS | 0.4375 ± 0.0033
7 | AGAFRIVWWALR | 0.528 ± 0.073
8 | ALFLLWVVMHDV | 0.343 ± 0.011
9 | ALLWEFVPCSVR | 0.453 ± 0.015
10 | ALRGLWFPFSCL | 0.393 ± 0.022
11 | ALSGLARFIVCH | 0.428 ± 0.026
12 | ALVGEVLWFQLV | 0.471 ± 0.0021
13 | APLLPPALALTC | 0.505 ± 0.025
14 | ARGVAAAFVSGF | 0.595 ± 0.23
15 | ARRGHNCAAVFL | 0.643 ± 0.3
16 | ARTWVVLLICGH | 0.423 ± 0.033
17 | ASWRYMFPVTLG | 0.367 ± 0.032
18 | AVCVVVMAVFVG | 0.3646 ± 0.0028
19 | CASVCCFFAWIV | 0.416 ± 0.06
20 | CCVFFLLCLSLF | 0.354 ± 0.044
21 | CFFGFRAGLFLG | 0.214 ± 0.016
22 | CFFVSLFFYIDC | 0.323 ± 0.011
23 | CFGSALLKCWLC | 0.406 ± 0.035
24 | CFLSWSLRFFIL | 0.206 ± 0.011

Row | Sequence | protein stability index
25 | CFVRCFVSIRLF | 0.133 ± 0.034
26 | CGGLFDVALGVG | 0.471 ± 0.027
27 | CGGVQVWRVKVV | 0.3403 ± 0.002
28 | CGSFWVNVLCAV | 0.402 ± 0.013
29 | CILYLSWIIFRA | 0.146 ± 0.026
30 | CLLDVVMVVERG | 0.365 ± 0.012
31 | CPMFVKFFFCLY | 0.405 ± 0.024
32 | CRGLSWRMITCL | 0.225 ± 0.012
33 | CRLRYSILWFRL | 0.152 ± 0.017
34 | CRRQLKVLKSMS | 0.242 ± 0.039
35 | CSFHFSLFFLRV | 0.334 ± 0.037
36 | CSRVVGLFFLVV | 0.432 ± 0.033
37 | CVCLWCFLVWAR | 0.384 ± 0.016
38 | CVCPFCVWVSCL | 0.433 ± 0.081
39 | CVSFFRCLFLIV | 0.168 ± 0.0043
40 | CWYVCSFWPYVV | 0.174 ± 0.013
41 | DAGSSYRFFRFI | 0.425 ± 0.022
42 | DFFTSFSLFFFL | 0.0727 ± 0.039
43 | DLIGSVRRLFCV | 0.27 ± 0.042
44 | DLLKAILKIKSL | 0.171 ± 0.054
45 | DLQTVGLTRFIV | 0.236 ± 0.071
46 | DLRRYRTLIPCK | 0.447 ± 0.034
47 | DPKQVRIQSSWL | 0.7428 ± 0.0039
48 | DVLLVVVLGRFL | 0.44 ± 0.066

Row | Sequence | protein stability index
49 | DVPLFLPLPVSV | 0.392 ± 0.0097
50 | ELDVRPMVFLVA | 0.422 ± 0.007
51 | ESRDRRVGIANW | 0.7252 ± 0.0026
52 | FACLTPFCLCLT | 0.431 ± 0.025
53 | FALFCFVIFMSR | 0.363 ± 0.06
54 | FAVTRVHLACWG | 0.4649 ± 0.0013
55 | YRSTPTGPPRPT | 0.758 ± 0.13
56 | YSASPLSCICPP | 0.652 ± 0.053
57 | YSFVKEFLNHRY | 0.681 ± 0.036
58 | YSGLNRVPDFCH | 0.676 ± 0.039
59 | YSGRGLISNHGY | 0.723 ± 0.043
60 | YSLQSCGFLANE | 0.642 ± 0.03
61 | YTPPNTLCPPVA | 0.703 ± 0.24
62 | YTSHRGKVYMSV | 0.632 ± 0.019
63 | YTTVRGETRSQL | 0.727 ± 0.017
64 | YVARRRPHPTGP | 0.778 ± 0.17
65 | YVFFPNGGLRLG | 0.564 ± 0.022
66 | YVGGGAGVLLVL | 0.623 ± 0.014
67 | YVGLSSRSFLSF | 0.687 ± 0.033
68 | YVSSYILPVTRV | 0.603 ± 0.045
69 | YVTPALRPTSSR | 0.728 ± 0.031
70 | YWAPYVWMFGFR | 0.565 ± 0.0088
71 | YYPRGIYHNSMT | 0.713 ± 0.033

Tested on: Saccharomyces cerevisiae
Assay: as above
Details: genetic background: cdc34-1; temperature: 37 C
Procedure: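 MPS profiling in S. cerevisiae of the tFT-X12 degron library: putative degron peptides plus stable controls, 12 aa, fused to the C-terminus of a sfGFP-mCherry timer. Cells are FACS-sorted into 8 mCherry/sfGFP bins and deep-sequenced. PSI runs from 0 (unstable) to 1 (stable). Backgrounds are wild type, das1Δ and doa10Δ at 30 °C, and wild type, das1Δ, cdc34-1 and cdc53-1 at 37 °C; 2-3 technical replicates each.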

Row | Sequence | protein stability index
72 | AAVQVCVLLLLL | 0.366 ± 0.029
73 | ACSRKPIWVTWL | 0.666 ± 0.057
74 | AFLLVLFCCVSC | 0.241 ± 0.044
75 | AFLWSLFVFFRF | 0.254 ± 0.056
76 | AFVVPLFLCCCG | 0.1836 ± 0.0015
77 | AFYLCLYFMPVS | 0.454 ± 0.026
78 | AGAFRIVWWALR | 0.652 ± 0.034
79 | ALFLLWVVMHDV | 0.2376 ± 0.0022
80 | ALLWEFVPCSVR | 0.521 ± 0.032
81 | ALRGLWFPFSCL | 0.66 ± 0.023
82 | ALRLPPPPFSLY | 0.677 ± 0.045
83 | ALSGLARFIVCH | 0.308 ± 0.0074
84 | ALVGEVLWFQLV | 0.684 ± 0.039
85 | APLLPPALALTC | 0.533 ± 0.029
86 | APPSFPPLLLLS | 0.664 ± 0.028
87 | AQCRGGGLSGVG | 0.572 ± 0.023
88 | ARGVAAAFVSGF | 0.696 ± 0.043
89 | ARRGHNCAAVFL | 0.6953 ± 0.0068
90 | ARTWVVLLICGH | 0.4159 ± 0.0012
91 | ASWRYMFPVTLG | 0.576 ± 0.031
92 | AVCVVVMAVFVG | 0.339 ± 0.056
93 | CASVCCFFAWIV | 0.571 ± 0.028
94 | CCVFFLLCLSLF | 0.419 ± 0.016
95 | CFFGFRAGLFLG | 0.507 ± 0.0082
96 | CFFVSLFFYIDC | 0.207 ± 0.055

Row | Sequence | protein stability index
97 | CFGSALLKCWLC | 0.602 ± 0.037
98 | CFLSWSLRFFIL | 0.387 ± 0.094
99 | CFVRCFVSIRLF | 0.109 ± 0.041
100 | CGGLFDVALGVG | 0.457 ± 0.031
101 | CGGVQVWRVKVV | 0.657 ± 0.023
102 | CGSFWVNVLCAV | 0.402 ± 0.01
103 | CILYLSWIIFRA | 0.161 ± 0.037
104 | CLCLICFLCWFA | 0.475 ± 0.037
105 | CLLDVVMVVERG | 0.384 ± 0.055
106 | CPMFVKFFFCLY | 0.448 ± 0.027
107 | CRGLSWRMITCL | 0.493 ± 0.035
108 | CRLRYSILWFRL | 0.104 ± 0.024
109 | CRRQLKVLKSMS | 0.581 ± 0.072
110 | CSFHFSLFFLRV | 0.3793 ± 0.0022
111 | CSRVVGLFFLVV | 0.5355 ± 0.0037
112 | CVCLWCFLVWAR | 0.307 ± 0.018
113 | CVCPFCVWVSCL | 0.598 ± 0.066
114 | CVSFFRCLFLIV | 0.217 ± 0.0061
115 | CWYVCSFWPYVV | 0.366 ± 0.061
116 | DAGSSYRFFRFI | 0.693 ± 0.071
117 | DFFTSFSLFFFL | 0.674 ± 0.028
118 | DLIGSVRRLFCV | 0.651 ± 0.042
119 | DLLKAILKIKSL | 0.579 ± 0.095
120 | DLQTVGLTRFIV | 0.62 ± 0.031
121 | DLRRYRTLIPCK | 0.38 ± 0.014

Row | Sequence | protein stability index
122 | DPKQVRIQSSWL | 0.699 ± 0.016
123 | DVLLVVVLGRFL | 0.403 ± 0.058
124 | DVPLFLPLPVSV | 0.357 ± 0.035
125 | ELDVRPMVFLVA | 0.4192 ± 0.0018
126 | ESRDRRVGIANW | 0.69 ± 0.036
127 | FACLTPFCLCLT | 0.527 ± 0.016
128 | FALFCFVIFMSR | 0.22 ± 0.05
129 | FAVTRVHLACWG | 0.453 ± 0.049
130 | GFLGMFFFWFAL | 0.588 ± 0.0078
131 | GGGGMGRRVGVG | 0.361 ± 0.036
132 | LCLPLYIRILSF | 0.0413 ± 0.0034
133 | LPPTPPLSPPPH | 0.644 ± 0.025
134 | LSPRPPAPYYSP | 0.657 ± 0.067
135 | PSPHRAPPGGHP | 0.68 ± 0.059
136 | RKKIRTYINENV | 0.686 ± 0.079
137 | RPPPTPRSVLLN | 0.67 ± 0.021
138 | SVPCWVFLFCLA | 0.349 ± 0.01
139 | TWGGGRVSLGGG | 0.316 ± 0.038
140 | VCNSIPLTPPPA | 0.679 ± 0.031
141 | VSGITLPFLMFH | 0.287 ± 0.055
142 | VSGSFRVCFRVW | 0.612 ± 0.048
143 | VWWWGGVGWLMV | 0.571 ± 0.047
144 | YVLLDFFFFFLV | 0.216 ± 0.044

Same assay, conditions: genetic background: cdc53-1; temperature: 37 C

Row | Sequence | protein stability index
145 | AAVQVCVLLLLL | 0.476 ± 0.032
